Measured values: publication PMC6683731 (The Journal of Cell Biology, 2019)
Like-named read-outs stand apart in the source and are kept apart here.

T1: cohesin subcomplex containing SA2 (residues 80–1060) and Scc1 (residues 281–420) (UniProt Q8N3U4 80-1060; O60216 281-420)
T1 sequence (looked up) 1: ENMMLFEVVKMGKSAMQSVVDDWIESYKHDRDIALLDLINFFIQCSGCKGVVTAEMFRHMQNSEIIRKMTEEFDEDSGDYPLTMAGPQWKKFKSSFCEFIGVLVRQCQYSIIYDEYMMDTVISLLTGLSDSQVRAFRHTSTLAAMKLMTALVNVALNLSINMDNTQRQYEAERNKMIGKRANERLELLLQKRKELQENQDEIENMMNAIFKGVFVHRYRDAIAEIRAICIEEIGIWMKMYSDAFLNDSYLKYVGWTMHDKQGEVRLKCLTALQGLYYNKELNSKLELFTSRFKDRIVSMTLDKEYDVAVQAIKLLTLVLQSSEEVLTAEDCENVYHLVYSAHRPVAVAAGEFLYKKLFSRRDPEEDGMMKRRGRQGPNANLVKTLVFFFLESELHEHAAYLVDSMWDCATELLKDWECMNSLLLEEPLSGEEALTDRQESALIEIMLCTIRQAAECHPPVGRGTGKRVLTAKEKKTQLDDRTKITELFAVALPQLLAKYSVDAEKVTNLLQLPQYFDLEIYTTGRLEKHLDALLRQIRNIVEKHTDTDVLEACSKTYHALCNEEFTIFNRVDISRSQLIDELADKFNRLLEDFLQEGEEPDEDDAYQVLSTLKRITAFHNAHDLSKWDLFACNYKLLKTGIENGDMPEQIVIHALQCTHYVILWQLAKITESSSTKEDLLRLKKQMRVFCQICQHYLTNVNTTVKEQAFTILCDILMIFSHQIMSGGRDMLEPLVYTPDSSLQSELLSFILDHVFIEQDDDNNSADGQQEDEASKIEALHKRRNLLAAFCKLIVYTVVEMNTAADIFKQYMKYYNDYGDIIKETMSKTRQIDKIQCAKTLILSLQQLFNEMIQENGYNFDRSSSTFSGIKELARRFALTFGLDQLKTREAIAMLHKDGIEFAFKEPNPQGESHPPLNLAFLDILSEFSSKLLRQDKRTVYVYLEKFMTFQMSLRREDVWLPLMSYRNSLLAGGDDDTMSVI
T1 sequence (looked up) 2: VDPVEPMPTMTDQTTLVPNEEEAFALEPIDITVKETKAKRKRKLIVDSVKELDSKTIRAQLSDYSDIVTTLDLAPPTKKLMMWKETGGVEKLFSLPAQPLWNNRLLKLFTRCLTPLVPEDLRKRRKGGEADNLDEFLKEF

B1: GST-Sgo1 WT (241–387) (domain or fragment, human, UniProt Q5FBB7 241-387, looked up)
chain: VQHNACQWSKDQVNLSPKLIQPGTFTKTKEDILESKSEQTKSKQRDTQERKREEKRKANRRKSKRMSKYKENKSENKKTVPQKKMHKSVSSNDAYNFNLEEGVHLTPFRQKVSNDSNREENNESEVSLCESSGSGDDSDDLYLPTCK
B2: GST-Sgo1 (241–387), Cdk1-phosphorylated (domain or fragment, human, UniProt Q5FBB7 241-387, looked up)
chain: B1 chain
modifications: phospho-Thr346 (Cdk1/cyclin B1; detected with antibody against Sgo1 pT346; how much was phosphorylated could not be measured)
B3: GST-Sgo1 fragment 115–353 (domain or fragment, human, UniProt Q5FBB7 115-353, looked up)
chain: QEICSSGMDPNSDDSSRNLFVKDLPQIPLEETELPGQGESFQIEDQIPTIPQDTLGVDFDSGEAKSTDNVLPRTVSVRSSLKKHCNSICQFDSLDDFETSHLAGKSFEFERVGFLDPLVNMHIPENVQHNACQWSKDQVNLSPKLIQPGTFTKTKEDILESKSEQTKSKQRDTQERKREEKRKANRRKSKRMSKYKENKSENKKTVPQKKMHKSVSSNDAYNFNLEEGVHLTPFRQKVS
B4: GST-Sgo1 ΔSET (241–387 depleted of 281–310) (domain or fragment, human, UniProt Q5FBB7 241-387, looked up)
chain: VQHNACQWSKDQVNLSPKLIQPGTFTKTKEDILESKSEQTENKSENKKTVPQKKMHKSVSSNDAYNFNLEEGVHLTPFRQKVSNDSNREENNESEVSLCESSGSGDDSDDLYLPTCK
B5: GST-Sgo1 fragment 280–353 (domain or fragment, human, UniProt Q5FBB7 280-353, looked up)
chain: TKSKQRDTQERKREEKRKANRRKSKRMSKYKENKSENKKTVPQKKMHKSVSSNDAYNFNLEEGVHLTPFRQKVS
B6: GST-Sgo1 fragment 200–353 (domain or fragment, human, UniProt Q5FBB7 200-353, looked up)
chain: NSICQFDSLDDFETSHLAGKSFEFERVGFLDPLVNMHIPENVQHNACQWSKDQVNLSPKLIQPGTFTKTKEDILESKSEQTKSKQRDTQERKREEKRKANRRKSKRMSKYKENKSENKKTVPQKKMHKSVSSNDAYNFNLEEGVHLTPFRQKVS
B7: GST-Sgo1 ΔCohesin (241–387 depleted of 313–353) (domain or fragment, human, UniProt Q5FBB7 241-387, looked up)
chain: VQHNACQWSKDQVNLSPKLIQPGTFTKTKEDILESKSEQTKSKQRDTQERKREEKRKANRRKSKRMSKYKENNDSNREENNESEVSLCESSGSGDDSDDLYLPTCK

Key:
Test in all cases: pull-down
[1] = biological target: T1, cohesin subcomplex containing SA2 …
His6-SET (full length) [2] = biological target: T2, His6-SET (full length) (human, UniProt Q01105 1-290)
T2 sequence (Q01105 whole entry): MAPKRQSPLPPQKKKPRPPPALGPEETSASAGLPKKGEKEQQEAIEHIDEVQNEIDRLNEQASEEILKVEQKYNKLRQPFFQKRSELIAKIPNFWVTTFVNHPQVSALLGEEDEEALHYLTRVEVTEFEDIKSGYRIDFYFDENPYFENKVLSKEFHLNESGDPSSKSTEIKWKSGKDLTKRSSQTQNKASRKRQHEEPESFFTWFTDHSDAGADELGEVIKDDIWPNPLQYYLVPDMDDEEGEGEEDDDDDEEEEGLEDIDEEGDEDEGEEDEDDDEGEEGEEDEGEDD

[3] = biological target: T1, cohesin subcomplex containing SA2 …; remark: listed apart in the source
His6-SET (full length) [4] = biological target: T2, His6-SET (full length); remark: listed apart in the source

Binder	binding result (His6-SET (full length) [2])	other results
B1	binds	binding result [1]: binds
B2	–	binding result [3]: binds; binding result (His6-SET (full length) [4]): binds
B3	binds	–
B4	–	binding result [1]: binds
B5	binds	–
B6	binds	–
B7	binds	–
